Measurements: US9415135B2, “Methods and compositions for stabilizing the myocardium” (The Regents of the University of California, priority 2002, dated 2016)

Tests used:
[1] = test system: neural stem cells (NSCs) from adult hippocampus; test: NSC adhesion and proliferation on peptide-modified IPNs (CyQUANT); format: cell-based, rat
Method: Neural stem cells were isolated from the hippocampi of adult female Fischer 344 rats as previously described (Lai, K., et al., Nat Neurosci, 6(1):21-7 (2003)). Cells at (200-10,000 cells/well) were seeded onto peptide-modified IPNs and laminin-modified culture wells and incubated (37° C., 5% CO2) in serum-free media consisting of DMEM/Hams F-12 medium with N−2 supplement. These media conditions were supplemented with various soluble factors to modulate cell behavior: 20 ng·ml^−1 basic fibroblast growth factor (bFGF) for cell proliferation or 1 μM retinoic acid with 5 μM forskolin for neuronal differentiation. Wells were rinsed every 48 hrs with fresh media.
NSCs isolated from the adult hippocampus were seeded onto bsp-RGD(15)-modified IPNs at various cell densities over four orders of magnitude. […] 18(2):337-45 (2002)). Such spheres provide less precise control over the cellular microenvironment, due in part to spatial gradients in signaling and nutrients and internal necrosis.
For quantitative assays of proliferation, the NSCs were seeded at 1000 cells per well on various surfaces and grown for 3-6 days, and cell number was determined using a fluorescent dye that binds to nucleic acids, CyQUANT (Molecular Probes, Eugene, Oreg.). Briefly, cells grown on a particular surface for a fixed duration were washed once with phosphate buffer saline and lysed in the manufacturer's buffer with dye. Next, the fluorescent intensity of resulting solution was measured. […] Any increase in cell number on the negative control bsp-RGE(15)-modified IPNs reflected growth of weakly adherent neurospheres (FIG. 2d-e). About 10 pmol·cm^−2 bsp-RGD(15) was needed to support proliferation of NSCs, corresponding to ˜10^6 ligands per cell for the 10 μm diameter cells.

αIIBβ3 integrin = αIIBβ3 integrin (Homo sapiens, UniProt P05106+P08514); conditions: low affinity; cited from earlier work
Sequence of αIIBβ3 integrin (P08514 32-887 limits assumed): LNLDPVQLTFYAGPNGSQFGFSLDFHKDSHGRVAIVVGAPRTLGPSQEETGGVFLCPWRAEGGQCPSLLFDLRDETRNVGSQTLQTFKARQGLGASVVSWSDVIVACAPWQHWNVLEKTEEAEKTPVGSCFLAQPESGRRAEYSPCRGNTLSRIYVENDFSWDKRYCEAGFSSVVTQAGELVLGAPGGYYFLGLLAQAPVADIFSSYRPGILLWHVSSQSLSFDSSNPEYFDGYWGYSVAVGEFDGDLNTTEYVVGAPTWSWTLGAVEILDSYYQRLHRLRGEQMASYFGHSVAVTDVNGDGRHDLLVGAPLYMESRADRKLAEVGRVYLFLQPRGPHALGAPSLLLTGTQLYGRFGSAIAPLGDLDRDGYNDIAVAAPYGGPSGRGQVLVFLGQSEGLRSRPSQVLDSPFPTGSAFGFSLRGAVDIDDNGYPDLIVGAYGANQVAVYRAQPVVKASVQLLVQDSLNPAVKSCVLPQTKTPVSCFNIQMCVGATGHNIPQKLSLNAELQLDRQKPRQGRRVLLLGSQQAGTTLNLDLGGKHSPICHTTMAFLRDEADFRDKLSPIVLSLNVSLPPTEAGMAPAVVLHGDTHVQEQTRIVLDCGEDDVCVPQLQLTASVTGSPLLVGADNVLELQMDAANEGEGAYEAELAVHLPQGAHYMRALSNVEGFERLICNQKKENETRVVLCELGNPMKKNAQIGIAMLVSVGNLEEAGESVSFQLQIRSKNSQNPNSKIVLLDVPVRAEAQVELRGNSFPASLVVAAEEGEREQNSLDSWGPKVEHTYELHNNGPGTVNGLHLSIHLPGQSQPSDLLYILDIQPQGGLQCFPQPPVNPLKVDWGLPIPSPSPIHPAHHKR
Sequence of αIIBβ3 integrin (P08514 891-1039 partner limits assumed): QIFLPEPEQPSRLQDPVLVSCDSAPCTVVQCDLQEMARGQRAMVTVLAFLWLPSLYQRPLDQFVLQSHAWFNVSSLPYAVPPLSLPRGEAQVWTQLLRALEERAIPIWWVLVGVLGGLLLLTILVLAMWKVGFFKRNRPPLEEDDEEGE
Sequence of αIIBβ3 integrin (P05106 27-788): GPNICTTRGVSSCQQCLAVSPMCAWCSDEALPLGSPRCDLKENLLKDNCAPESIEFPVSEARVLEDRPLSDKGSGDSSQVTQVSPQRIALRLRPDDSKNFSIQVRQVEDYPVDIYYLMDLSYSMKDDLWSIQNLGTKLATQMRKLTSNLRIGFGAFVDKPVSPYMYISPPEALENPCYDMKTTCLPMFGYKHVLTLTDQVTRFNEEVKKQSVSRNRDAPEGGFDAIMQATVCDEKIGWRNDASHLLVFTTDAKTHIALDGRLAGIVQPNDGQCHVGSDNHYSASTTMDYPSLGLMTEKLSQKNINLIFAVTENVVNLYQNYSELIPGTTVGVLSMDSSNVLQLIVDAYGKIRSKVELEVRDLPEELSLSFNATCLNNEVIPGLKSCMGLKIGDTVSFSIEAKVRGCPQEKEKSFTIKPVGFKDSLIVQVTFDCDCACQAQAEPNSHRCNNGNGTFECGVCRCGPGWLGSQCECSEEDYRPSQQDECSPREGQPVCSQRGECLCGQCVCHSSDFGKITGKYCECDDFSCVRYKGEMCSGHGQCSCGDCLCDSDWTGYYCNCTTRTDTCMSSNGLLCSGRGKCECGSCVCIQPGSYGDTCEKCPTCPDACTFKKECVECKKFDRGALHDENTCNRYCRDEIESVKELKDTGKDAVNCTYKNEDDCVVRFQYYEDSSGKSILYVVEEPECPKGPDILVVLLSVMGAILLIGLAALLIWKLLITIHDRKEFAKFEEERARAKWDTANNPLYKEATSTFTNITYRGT

αvβ3 integrin = αvβ3 integrin (Homo sapiens, UniProt P05106+P06756); conditions: high affinity; read-out: IC50, αvβ3 integrin binding; cited from earlier work
Sequence of αvβ3 integrin (P06756 31-889 limits assumed): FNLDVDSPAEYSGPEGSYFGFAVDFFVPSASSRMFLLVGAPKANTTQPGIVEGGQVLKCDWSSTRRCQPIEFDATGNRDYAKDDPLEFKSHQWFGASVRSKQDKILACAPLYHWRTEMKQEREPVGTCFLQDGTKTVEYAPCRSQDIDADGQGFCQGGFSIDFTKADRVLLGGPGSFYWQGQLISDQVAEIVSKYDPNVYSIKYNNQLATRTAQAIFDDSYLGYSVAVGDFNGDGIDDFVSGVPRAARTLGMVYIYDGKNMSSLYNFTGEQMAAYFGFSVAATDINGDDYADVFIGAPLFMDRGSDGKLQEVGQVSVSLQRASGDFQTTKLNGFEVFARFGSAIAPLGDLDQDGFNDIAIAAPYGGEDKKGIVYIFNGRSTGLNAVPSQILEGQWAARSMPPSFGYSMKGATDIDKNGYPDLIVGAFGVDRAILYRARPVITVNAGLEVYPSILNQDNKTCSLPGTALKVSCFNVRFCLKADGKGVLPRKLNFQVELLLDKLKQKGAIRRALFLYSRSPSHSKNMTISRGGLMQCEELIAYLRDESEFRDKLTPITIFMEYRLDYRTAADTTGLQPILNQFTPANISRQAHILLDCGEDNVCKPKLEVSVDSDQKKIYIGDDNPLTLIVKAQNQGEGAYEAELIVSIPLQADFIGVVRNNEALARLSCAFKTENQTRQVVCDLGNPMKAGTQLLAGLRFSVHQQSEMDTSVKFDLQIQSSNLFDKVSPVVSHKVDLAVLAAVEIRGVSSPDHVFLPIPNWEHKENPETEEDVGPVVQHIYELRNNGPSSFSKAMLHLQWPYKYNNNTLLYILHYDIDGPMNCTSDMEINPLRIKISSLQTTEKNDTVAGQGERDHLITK
Sequence of αvβ3 integrin (P06756 891-1048 partner limits assumed): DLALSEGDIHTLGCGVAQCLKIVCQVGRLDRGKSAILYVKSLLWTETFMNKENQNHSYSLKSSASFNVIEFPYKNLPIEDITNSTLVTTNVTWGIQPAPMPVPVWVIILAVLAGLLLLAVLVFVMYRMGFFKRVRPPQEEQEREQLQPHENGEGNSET
Sequence of αvβ3 integrin (P05106 27-788): as the sequence (P05106 27-788) above

αvβ5 integrin = αvβ5 integrin (Homo sapiens, UniProt P06756+P18084); conditions: low affinity; cited from earlier work
Sequence of αvβ5 integrin (P06756 31-889 limits assumed): as the sequence (P06756 31-889 limits assumed) above
Sequence of αvβ5 integrin (P06756 891-1048 partner limits assumed): as the sequence (P06756 891-1048 partner limits assumed) above
Sequence of αvβ5 integrin (P18084 24-799): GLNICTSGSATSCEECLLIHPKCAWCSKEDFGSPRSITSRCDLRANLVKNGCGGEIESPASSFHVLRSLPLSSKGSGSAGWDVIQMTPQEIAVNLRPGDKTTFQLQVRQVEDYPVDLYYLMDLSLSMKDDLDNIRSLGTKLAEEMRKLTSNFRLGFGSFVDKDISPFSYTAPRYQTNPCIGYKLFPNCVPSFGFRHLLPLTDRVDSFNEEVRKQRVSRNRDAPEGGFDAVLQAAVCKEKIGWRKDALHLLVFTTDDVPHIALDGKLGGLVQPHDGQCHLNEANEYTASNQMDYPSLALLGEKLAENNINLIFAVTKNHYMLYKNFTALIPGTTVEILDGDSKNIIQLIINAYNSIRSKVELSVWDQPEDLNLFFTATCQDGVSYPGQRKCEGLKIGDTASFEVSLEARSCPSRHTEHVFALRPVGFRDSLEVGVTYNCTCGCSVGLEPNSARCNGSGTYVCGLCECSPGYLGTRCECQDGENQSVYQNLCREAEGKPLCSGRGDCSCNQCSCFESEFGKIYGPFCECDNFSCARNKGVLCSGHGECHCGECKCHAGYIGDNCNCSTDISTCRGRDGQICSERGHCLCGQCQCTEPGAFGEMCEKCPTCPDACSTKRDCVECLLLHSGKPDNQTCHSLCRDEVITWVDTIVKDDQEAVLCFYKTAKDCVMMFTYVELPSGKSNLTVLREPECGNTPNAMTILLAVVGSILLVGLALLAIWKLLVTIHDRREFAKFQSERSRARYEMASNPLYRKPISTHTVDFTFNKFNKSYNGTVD

MMP-1 = target: T1, MMP-1 (Homo sapiens, UniProt P03956); conditions: MMP-13 to MMP-1; cited from earlier work
T1 sequence (P03956 100-469): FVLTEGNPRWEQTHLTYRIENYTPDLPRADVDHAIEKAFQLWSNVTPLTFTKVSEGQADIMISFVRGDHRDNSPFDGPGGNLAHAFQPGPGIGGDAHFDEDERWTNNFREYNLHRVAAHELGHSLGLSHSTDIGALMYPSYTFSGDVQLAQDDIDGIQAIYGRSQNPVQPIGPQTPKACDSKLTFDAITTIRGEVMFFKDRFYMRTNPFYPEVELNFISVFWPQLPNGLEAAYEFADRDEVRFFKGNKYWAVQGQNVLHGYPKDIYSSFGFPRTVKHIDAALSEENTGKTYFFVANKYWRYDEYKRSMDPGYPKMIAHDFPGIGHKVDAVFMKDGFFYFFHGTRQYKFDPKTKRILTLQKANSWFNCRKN

MMP-9 = MMP-9 (Homo sapiens, UniProt P14780); conditions: MMP-13 to MMP-9; cited from earlier work
Sequence of MMP-9 (P14780 94-707, species assumed): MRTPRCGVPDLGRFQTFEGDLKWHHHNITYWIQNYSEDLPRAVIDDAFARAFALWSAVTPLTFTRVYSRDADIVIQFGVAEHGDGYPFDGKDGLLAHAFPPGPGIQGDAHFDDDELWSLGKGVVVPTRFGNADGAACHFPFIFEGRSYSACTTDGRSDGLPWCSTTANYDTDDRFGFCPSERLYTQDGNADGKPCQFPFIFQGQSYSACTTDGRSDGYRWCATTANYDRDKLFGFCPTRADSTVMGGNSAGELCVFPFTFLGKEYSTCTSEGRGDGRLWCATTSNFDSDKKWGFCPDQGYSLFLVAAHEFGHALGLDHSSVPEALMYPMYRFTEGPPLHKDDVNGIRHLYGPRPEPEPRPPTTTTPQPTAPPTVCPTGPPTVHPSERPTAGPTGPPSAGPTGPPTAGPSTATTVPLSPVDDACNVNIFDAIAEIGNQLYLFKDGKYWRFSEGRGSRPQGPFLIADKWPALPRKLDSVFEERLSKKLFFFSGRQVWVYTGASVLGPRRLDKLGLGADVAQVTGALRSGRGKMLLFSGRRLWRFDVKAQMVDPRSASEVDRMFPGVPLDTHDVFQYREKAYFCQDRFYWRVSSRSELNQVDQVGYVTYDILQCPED

MMP-3 = MMP-3 (Homo sapiens, UniProt P08254); conditions: MMP-13 to MMP-3; cited from earlier work
Sequence of MMP-3 (P08254 100-477, species assumed): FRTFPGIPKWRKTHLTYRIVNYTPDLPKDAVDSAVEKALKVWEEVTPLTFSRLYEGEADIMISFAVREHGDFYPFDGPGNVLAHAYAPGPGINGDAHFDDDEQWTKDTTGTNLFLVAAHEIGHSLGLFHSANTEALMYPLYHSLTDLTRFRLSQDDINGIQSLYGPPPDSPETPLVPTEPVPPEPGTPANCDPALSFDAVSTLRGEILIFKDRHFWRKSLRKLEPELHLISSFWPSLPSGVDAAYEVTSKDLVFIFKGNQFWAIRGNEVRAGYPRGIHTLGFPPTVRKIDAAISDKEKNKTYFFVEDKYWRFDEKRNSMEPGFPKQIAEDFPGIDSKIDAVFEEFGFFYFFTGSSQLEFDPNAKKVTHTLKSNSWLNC

[2] = test system: neural stem cells (NSCs) from adult hippocampus; test: NSC phenotype and differentiation on peptide-modified IPNs (qRT-PCR, immunofluorescent staining); format: cell-based, rat; conditions: 1 μM retinoic acid with 5 μM forskolin
Method: Neural stem cells were isolated from the hippocampi of adult female Fischer 344 rats as previously described (Lai, K., et al., Nat Neurosci, 6(1):21-7 (2003)). Cells at (200-10,000 cells/well) were seeded onto peptide-modified IPNs and laminin-modified culture wells and incubated (37° C., 5% CO2) in serum-free media consisting of DMEM/Hams F-12 medium with N-2 supplement. These media conditions were supplemented with various soluble factors to modulate cell behavior: 20 ng·ml^-1 basic fibroblast growth factor (bFGF) for cell proliferation or 1 μM retinoic acid with 5 μM forskolin for neuronal differentiation. Wells were rinsed every 48 hrs with fresh media. […] To assay phenotype, two methods were used: quantitative real time PCR (qRT-PCR) and immunofluorescent staining. […] Quantitative real time PCR was used as a complementary technique to accurately quantify specific cDNA concentrations in various cDNA samples from cells grown on IPNs and laminin (using a Bio-Rad Laboratories iCycler). GFAP expression levels were quantified as a marker for astrocytic differentiation of the progenitor cells. β-Tubulin-III was used as a marker for neurons. […] The plasmids were linearized by restriction digest and quantified by absorbance, and tenfold serial dilutions from 1 ng/μL to 10^-9 ng/μL were prepared to generate a standard curve. […]

Row | Substance | Selectivity (kcat/Km ratio for MMP-13 to MMP-x), MMP-1 (MMP-1) | Selectivity (kcat/Km ratio for MMP-13 to MMP-x), MMP-9 (MMP-9) | Selectivity (kcat/Km ratio for MMP-13 to MMP-x), MMP-3 (MMP-3) | further results
1 | CGGNGEPRGETYRAY (bone sialopeptide sequence; bsp-RGE(15)) |  |  |  | NSC adhesion / attachment ([1]; proliferating or differentiating media conditions): did not support attachment
2 | H-Glu[cyclo (Arg-Gly-Asp-D-Phe-Lys)]2 [bicyclic RGD peptide reported by Janssen et al] |  |  |  | IC50 (αIIBβ3 integrin): 0.01 µM; IC50 (αvβ3 integrin): 0.0009 µM; IC50 (αvβ5 integrin): 0.01 µM
3 | C5-27: literature MMP-13 peptide substrate, P4-P4' G P F G F K S L (SEQ ID NO: 25) (GPFGFKSL; test peptide substrate) [Sample C5-27] | 2900 | 4.8 | 250 | 
4 | CSRARKQAASIKVAVSADR (lam-IKVAV(19) peptide) |  |  |  | NSC proliferation ([1]; proliferating media (bFGF)): did not enhance either cell proliferation or differentiation; NSC differentiation into neural lineages [2]: did not enhance either cell proliferation or differentiation
5 | C3-16: literature MMP-13 peptide substrate, P4-P4' G P K G V Y S L (SEQ ID NO: 27) (GPKGVYSL; test peptide substrate) [Sample C3-16] | 5500 | 2.2 | 3600 | 
6 | C2-22: literature MMP-13 peptide substrate, P4-P4' G P R P F N Y L (SEQ ID NO: 24) (GPRPFNYL; test peptide substrate) [Sample C2-22] | 180 | 21 | 7.9 | 
7 | C2-12P3A: literature MMP-13 peptide substrate, P4-P3' G A L G L S L (SEQ ID NO: 26) (GALGLSL; test peptide substrate) [Sample C2-12P3A] | 8.3 | 4.6 | 14 | 
8 | CP: literature MMP-13 peptide substrate, P4-P4' G P L G M R G L (SEQ ID NO: 23) (GPLGMRGL; test peptide substrate) | 820 | 11 | 1300 | 
9 | CGGNGEPRGDTYRAY (15-mer bone sialopeptide sequence; bsp-RGD(15)) |  |  |  | bsp-RGD(15) surface density needed to support proliferation of NSCs ([1]; grafted on IPN): About 10 pmol·cm^−2
